From article PMC3299563, “Salt Bridges Regulate Both Dimer Formation and Monomeric Flexibility in HdeB and May Have a Role in Periplasmic Chaperone Function” (Journal of Molecular Biology, 2011) come the findings set out here.

For one data set, the target named is Asp76 (UniProt position 76, TLNETDLTQIP). Kind of data set: fluorescence. The following applies: 20 °C; not stated (McIlvaine buffer: mixtures of 0.1 M citric acid and 0.2 M Na2HPO4; 10 mM KCl adjusted with HCl for more acid solutions); McIlvaine buffer (citric acid / Na2HPO4) for pH 2.6-7; 10 mM KCl/HCl for more acid solutions; 50 uM protein, no ligand; dimer at neutral pH, monomer below about pH 3.

In data set [1] the target is HdeB E41Q, C-terminal His6 E41Q (UniProt P0AET2). Nature of the data set: Intrinsic tryptophan fluorescence (emission maximum, intensity, acrylamide Stern-Volmer quenching constant, steady-state anisotropy) as a function of pH. The following applies: pH 1.5-7.5; 20 °C; Not stated as a number. It varies with the McIlvaine mixing ratio; 10 mM KCl below pH 2.6.; McIlvaine buffer (mixtures of 0.1 M citric acid and 0.2 M Na2HPO4) for pH 2.6-7; 10 mM KCl adjusted with HCl for more ac.

Data set [2] addresses HdeB (acid stress chaperone HdeB), wild type, C-terminal His6 (UniProt P0AET2). The data set is described as above. Particulars: pH 1.5-7.5; 20 °C; Not stated as a number. It varies with the McIlvaine mixing ratio; 10 mM KCl below pH 2.6.; McIlvaine buffer (mixtures of 0.1 M citric acid and 0.2 M Na2HPO4) for pH 2.6-7; 10 mM KCl adjusted with HCl for more ac.
Data set [3] concerns the molecule itself. Nature of the data set: SEC; gel filtration at neutral pH (pH 7).
Data set [4] deals with the molecule itself. Kind of data set: other fluorescence titration; intrinsic tryptophan fluorescence (emission maximum, acrylamide quenching, anisotropy) against pH 1.5 to 7.5; 50 μM HdeB, McIlvaine buffer, 20 °C; apparent pKa; neutral side of the transition.
Data set [5] concerns the molecule itself. Nature of the data set: crystal structure; methylated HdeB-His6 at 15 mg/ml; 50% (v/v) polyethylene glycol 400, 0.1 M acetate pH 4.5, 0.2 M Li2SO4; 1.5 Å; dimer found with PISA.
Data set [6] concerns the molecule itself. Kind of data set: other fluorescence titration; emission maximum against HdeB concentration (1-100 μM, as monomers) at pH 7.5; dimer to monomers.

Take “Acid stress chaperone HdeB H59N (His6-tagged) (Escherichia coli; H59N)”: the pKa with Asp76 is recorded as 3.5.

As to HdeB E41Q, C-terminal His6 E41Q, the “shift of the apparent pKa of dimer dissociation relative to wild type (50 uM)” value in data set [1] is on record as “apparent pKa ∼ 0.5 pH units higher than that of wild type”.

For the molecule “Acid stress chaperone HdeB (HdeB-His6 WT) (Escherichia coli)”, in the data set with Asp76, the pKa is on record as 2.9.

For the molecule “HdeB (acid stress chaperone HdeB), wild type, C-terminal His6”, in data set [2], the “effective pKa of dimer dissociation (midpoint of the dimer-to-monomer transition at 50 uM)” value is listed as “effective pKa ≈ 3 for dissociation of the dimer”.

B1: HdeB D76N (natural protein, E. coli, UniProt P0AET2 30-108, looked up)
chain: ANESAKDMTCQEFIDLNPKAMTPVAWWMLHEETVYKGGDTVTLNETNLTQIPKVIEYCKKNPQKNLYTFKNQASNDLPN
notes: HdeB, E. coli, with D76N; residue numbers count on the precursor; Probably made from the HdeB-His6 construct; also called D67N (as printed in two places)
Take B1: the binding result in data set [3] is listed as “binds”.

B2: HdeB H59N (natural protein, E. coli, UniProt P0AET2 30-108, looked up)
chain: ANESAKDMTCQEFIDLNPKAMTPVAWWMLNEETVYKGGDTVTLNETDLTQIPKVIEYCKKNPQKNLYTFKNQASNDLPN
notes: HdeB, E. coli, with H59N; residue numbers count on the precursor; Probably made from the HdeB-His6 construct; also called H59N mutant
As for B2, the binding result in data set [4] is given as “binds”.

B3: HdeB (methylated) (natural protein, E. coli, UniProt P0AET2 30-108, looked up)
chain: ANESAKDMTCQEFIDLNPKAMTPVAWWMLHEETVYKGGDTVTLNETDLTQIPKVIEYCKKNPQKNLYTFKNQASNDLPN
modifications: reductively methylated lysines: doubly methylated K48, K88 and K93; some modification of K35, K65, K89 and K99; K82 apparently unmodified
notes: HdeB, E. coli; A30 to A102 ordered, six C-terminal residues and the His-tag disordered; residue numbers count on the precursor; A selenomethionine variant, treated identically, was used for phasing only; also called methylated HdeB-His6; HdeB after reductive methylation; source: E. coli MG1655ΔhdeAB, purified (Ni resin, gel filtration), then reductive methylation and gel filtration; not shown: …
For B3, the “stoichiometry N” value in data set [5] is 2.

B4: HdeB-His6 WT (natural protein, E. coli, UniProt P0AET2 30-108, looked up)
chain: ANESAKDMTCQEFIDLNPKAMTPVAWWMLHEETVYKGGDTVTLNETDLTQIPKVIEYCKKNPQKNLYTFKNQASNDLPN
notes: HdeB, E. coli periplasmic acid-stress chaperone; begins at A30; A30 to A102 ordered in the crystal plus six disordered C-terminal residues; residue numbers count on the precursor; Cloned with hdeA (hdeAB genes) in pTrc99A; primers are in the Supplementary Data; also called HdeB WT; wild type; source: E. coli MG1655ΔhdeAB, plasmid pTrcHdeABHis6, 1 mM IPTG, purified (Ni resin, gel filtration); not …
For the molecule B4, the “stoichiometry N” value in data set [3] worked out at 2. Further, in data set [6], the Kd is below 1 µM.

B5: HdeB E41Q (natural protein, E. coli, UniProt P0AET2 30-108, looked up)
chain: ANESAKDMTCQQFIDLNPKAMTPVAWWMLHEETVYKGGDTVTLNETDLTQIPKVIEYCKKNPQKNLYTFKNQASNDLPN
notes: HdeB, E. coli, with E41Q; residue numbers count on the precursor; The methods speak of 'purified HdeB-His6 WT and E41Q samples'; probably the same construct and host as the wild type; also called E41Q mutant; source: purified mutant protein
Molecule B5 yielded a Kd in data set [6] of 34 µM.
